Reference: patent publication US20260265334A1, “STAPLED PEPTIDES” (THE FLOREY INSTITUTE OF NEUROSCIENCE AND MENTAL HEALTH, priority 2023, published 2026)
Like-named read-outs stand apart in the source and are kept apart here. Bridge positions count the residues as written; N and C are the ends. Square brackets hold non-standard residues; d marks the D form. Ends that are not written are not given here. Peptide text beside a SMILES is read from it. I, II: the chains in the order shown. ξ: configuration not given here. αMeF = C[C@](N)(Cc1ccccc1)C(=O)O; S5 = C=CCCC[C@](C)(N)C(=O)O; αMeC = C[C@](N)(CS)C(=O)O; ξF = NC(Cc1ccccc1)C(=O)O

How the values were obtained:
[1] = target: T1, RXFP4 (Homo sapiens, UniProt Q8TDU9); experiment: Eu-R3/I5 competition binding assay in CHO-K1-RXFP4 cells; set-up: expressed in transfected cells
Procedure: An Eu-R3/15 competition binding assay in CHO-K1-RXFP4 cells was carried out.
(§1) Competition binding curves for each peptide were performed in triplicate and each experiment was performed independently at least three times. Fluorescent measurements were carried out at excitation of 340 nm and emission of 614 nm on a BMG POLARstar plate reader (BMG Labtech, Melbourne, Australia). Pooled data were presented as mean±S.E.M. of specific binding and are fitted using a one-site binding curve in GraphPad Prism version 8 (GraphPad Inc., San Diego, USA). Statistical analyses were conducted using one-way analysis of variance with uncorrected Fisher's least significant difference (LSD) post-hoc analysis in GraphPad Prism version 9.
(§2) An additional analogue of INSL5 was utilised as a control, INSL5-A13, having an A chain (SEQ ID NO: 9) and a B chain (SEQ ID NO: 10) with a first disulfide bond between Cys 1 of the A chain and Cys 7 of the B chain, and a second disulfide bond between Cys 14 of the A chain and Cys 19 of the B chain:
(§3) Competition binding and cAMP activity assay were conducted by a procedure analogous to that described above for Example 3. The results are shown in FIG. 24 (RXFP3) and FIG. 25 (RXFP4).

[2] = target: T2, RXFP3 (Homo sapiens, UniProt Q9NSD7); experiment: Eu-H3B1-22R competition binding assay in CHO-K1-RXFP3 cells; conditions: 5 nM Eu-H3B1-22R, mean ± SEM (n)
T2 construct: expressed in transfected cells
T2 sequence (Q9NSD7 1-469): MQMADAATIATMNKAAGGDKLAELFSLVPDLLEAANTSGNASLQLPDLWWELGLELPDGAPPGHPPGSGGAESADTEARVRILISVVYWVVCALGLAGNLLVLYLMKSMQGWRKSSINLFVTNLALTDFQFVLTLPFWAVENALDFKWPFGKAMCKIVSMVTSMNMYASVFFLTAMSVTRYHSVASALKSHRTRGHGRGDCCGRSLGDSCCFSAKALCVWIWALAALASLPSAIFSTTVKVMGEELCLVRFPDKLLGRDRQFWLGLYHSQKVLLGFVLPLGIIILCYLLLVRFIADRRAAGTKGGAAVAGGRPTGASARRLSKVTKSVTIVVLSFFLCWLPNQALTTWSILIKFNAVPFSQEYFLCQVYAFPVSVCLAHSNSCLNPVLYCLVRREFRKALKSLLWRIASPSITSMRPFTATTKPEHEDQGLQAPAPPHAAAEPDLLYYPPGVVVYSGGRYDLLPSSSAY
Procedure: An Eu-H3B1-22R competition binding assay was conducted in CHO-K1-RXFP3 cells.
as §1, §3

[3] = target: T2, RXFP3; experiment: Inhibition of forskolin-induced cAMP activity in CHO-K1-RXFP3 cells (pCRE β-galactosidase reporter); format: cell-based; conditions: 5 μM forskolin, 6 hours
Procedure: Since RXFP3 is coupled to Gi/o proteins, peptides were tested for their ability to activate RXFP3 as measured via their ability to inhibit forskolin-induced cAMP activity in CHO-K1-RXFP3 or CHO-K1-RXFP4 cells transfected with a pCRE (cAMP Response Element) β-galactosidase reporter plasmid (as described in Belgi, A et al., Structure and function relationship of murine insulin-like peptide 5 (INSL5): free C-terminus is essential for RXFP4 receptor binding and activation. Biochemistry 2011, 50 (39), 8352-61; and Haugaard-Kedstrom, L. M et al., Synthesis and pharmacological characterization of a europium-labelled single-chain antagonist for binding studies of the relaxin-3 receptor RXFP3. Amino Acids 2015, 47 (6), 1267-71). For agonist assays, cells were stimulated with forskolin (5 μM for RXFP3, 1 μM for RXFP4)±increasing concentrations of each peptide for 6 hours. Data were expressed as the % forskolin activity, whereby 100% was defined as forskolin alone and 0% as maximum agonist stimulation (1 μM Analogue 2 for RXFP3 and 1 μM Analogue 13 for RXFP4). Data were analysed and plotted using GraphPad Prism 9 and are expressed as the mean±SEM of the pooled data. Statistical analysis was conducted using one-way ANOVA with Uncorrected Fisher's LSD post-hoc analysis using GraphPad Prism 9.
as §3

[4] = target: T1, RXFP4; experiment: Inhibition of forskolin-induced cAMP activity in CHO-K1-RXFP4 cells (pCRE β-galactosidase reporter); format: cell-based; set-up: expressed in transfected cells; conditions: for cAMP pEC50: RXFP4, CHO-K1-RXFP4 cells, 1 μM forskolin, 6 hours, Table 3
Procedure: For agonist assays, cells were stimulated with forskolin (5 μM for RXFP3, 1 μM for RXFP4)±increasing concentrations of each peptide for 6 hours. Data were expressed as the % forskolin activity, whereby 100% was defined as forskolin alone and 0% as maximum agonist stimulation (1 μM Analogue 2 for RXFP3 and 1 μM Analogue 13 for RXFP4). Data were analysed and plotted using GraphPad Prism 9 and are expressed as the mean±SEM of the pooled data. Statistical analysis was conducted using one-way ANOVA with Uncorrected Fisher's LSD post-hoc analysis using GraphPad Prism 9.
as §2, §3

[5] = target: T3, RXFP4 (relaxin family peptide receptor 4) on CHO-K1-RXFP4 cells (UniProt Q8TDU9 1-374, limits assumed); experiment: cell-based or functional assay
[6] = target: T3, RXFP4 (relaxin family peptide receptor …); experiment: competition with Eu-R3/I5 on CHO-K1-RXFP4 cells
[7] = target: T4, LgBiT-RXFP4 (HEK-LgBiT-RXFP4 crude membrane fractions) (UniProt Q8TDU9 1-374); experiment: NanoBiT competition with 2 nM SmBiT-R3/I5 on HEK-LgBiT-RXFP4 membranes
T4 construct: Assayed as crude membrane fractions (25 µg protein) of HEK cells; not shown: LgBiT tag of NanoBiT

[8] = target: T3, RXFP4 (relaxin family peptide receptor …); experiment: competition with Eu-R3/I5 on CHO-K1-RXFP4 cells; remark: listed apart in the source
[9] = target: T5, RXFP3 (relaxin family peptide receptor 3) on CHO-K1-RXFP3 cells (UniProt Q9NSD7 1-469, limits assumed); experiment: competition with Eu-H3B1-22R on CHO-K1-RXFP3 cells
T5 construct: whole, on cells; also called GPCR135
T5 sequence (looked up): T2 sequence (Q9NSD7 1-469)

T3 sequence (Q8TDU9 whole entry): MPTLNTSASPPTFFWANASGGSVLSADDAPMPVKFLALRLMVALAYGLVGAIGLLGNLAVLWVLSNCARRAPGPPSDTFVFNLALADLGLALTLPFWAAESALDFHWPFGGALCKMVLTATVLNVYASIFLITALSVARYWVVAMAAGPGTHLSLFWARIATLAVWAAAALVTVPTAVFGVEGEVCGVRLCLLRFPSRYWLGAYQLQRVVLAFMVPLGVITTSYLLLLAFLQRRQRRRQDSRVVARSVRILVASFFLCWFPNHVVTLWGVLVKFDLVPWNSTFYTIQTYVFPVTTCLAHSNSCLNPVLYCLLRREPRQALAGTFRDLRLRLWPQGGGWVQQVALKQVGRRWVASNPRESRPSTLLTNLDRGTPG
T4 sequence (Q8TDU9 whole entry): as above
T1 sequence (Q8TDU9 whole entry): as above

## SGLEYIRTVIYISGGSRW-OH [Linear B-chain, S-G-L-E-Y-I-R-T-V-I-Y-I-S-G-G-S-R-W-OH]
[1]; RXFP4, Table 5
  Eu-R3/I5 pKi: No binding (3)

## CC[C@H](C)[C@@H]1NC(=O)[C@H](Cc2ccccc2)NC(=O)[C@H](CCC(=O)O)NC(=O)[C@H](CCCNC(=N)N)NC(=O)CNC(=O)[C@@H](NC(=O)[C@H](CC(C)C)NC(=O)[C@H](CCCNC(=N)N)NC(=O)[C@@H](NC(=O)CNC(=O)[C@H](Cc2ccc(O)cc2)NC(=O)[C@@H]2CCCN2C(=O)[C@H](C)NC(=O)[C@H](C)NC(=O)[C@@H](N)CCCNC(=N)N)C(C)C)CSSC[C@@H]2NC(=O)[C@@H](NC(=O)[C@H](CO)NC(=O)[C@H](CO)NC(=O)[C@H](CO)NC(=O)[C@H](CC(C)C)NC(=O)CNC(=O)[C@H](C)NC(=O)[C@H](CC(C)C)NC(=O)[C@@H](NC(=O)[C@@H](N)CC(=O)O)C(C)C)CSSC[C@H](NC(=O)CNC(=O)[C@H](Cc3c[nH]c4ccccc34)NC(=O)[C@H](CCCCN)NC2=O)C(=O)N[C@@H](CO)C(=O)N[C@@H](CCCCN)C(=O)N[C@@H](CO)C(=O)N[C@@H](CCC(=O)O)C(=O)N[C@@H]([C@@H](C)CC)C(=O)N[C@@H](CO)C(=O)N[C@@H](CO)C(=O)N[C@@H](CC(C)C)C(=O)N[C@H](C(=O)O)CSSC[C@@H](C(=O)NCC(=O)NCC(=O)N[C@@H](CO)C(=O)N[C@@H](CCCNC(=N)N)C(=O)N[C@@H](Cc2c[nH]c3ccccc23)C(=O)O)NC(=O)[C@H]([C@@H](C)O)NC(=O)[C@H](Cc2ccccc2)NC(=O)[C@H]([C@@H](C)CC)NC(=O)[C@H](C(C)C)NC(=O)[C@H](C)NC(=O)[C@H](CCCNC(=N)N)NC1=O [H3 relaxin]
[2]; Table 2
  Eu-H3B1-22R pKi: 7.64 ± 0.09 (4)^
[3]; Table 2
  cAMP pEC50: 9.08 ± 0.07 (5)
[4]
  cAMP pEC50: 8.94 ± 0.13 (4)

## CC[C@H](C)[C@H](NC(=O)[C@H](Cc1ccccc1)NC(=O)C(Cc1ccccc1)NC(=O)[C@H](CCCNC(=N)N)NC(=O)CNC(=O)[C@@H](N)CO)C(=O)N[C@@H](CCCNC(=N)N)C(=O)NC(Cc1ccccc1)C(=O)N[C@H](C(=O)N[C@H](C(=O)N[C@@H](Cc1ccccc1)C(=O)N[C@H](C(=O)N[C@@H](CO)C(=O)NCC(=O)NCC(=O)N[C@@H](CO)C(=O)N[C@@H](CCCNC(=N)N)C(=O)N[C@@H](Cc1c[nH]c2ccccc12)C(=O)O)[C@@H](C)O)[C@@H](C)CC)C(C)C (stereo partly drawn) [H3B10-27(13/17F)] (H-SGR[ξF]FIR[ξF]VIFTSGGSRW-OH; N-terminus assumed)
[2]; Table 2, read-out: Eu-H3B1-22R pKi (converted)
  Ki: > 10000 nM
[3]; Table 2, read-out: cAMP pEC50 (converted)
  EC50: > 10000 nM
[1]; RXFP4, CHO-K1-RXFP4 cells, 5 nM Eu-R3/I5, Table 3
  Eu-R3/I5 pKi: No binding (3)
[4]
  cAMP pEC50: No activity (4)

## CC[C@H](C)[C@H](NC(=O)[C@H](Cc1ccc(O)cc1)NC(=O)[C@@H](NC(=O)[C@@H](NC(=O)[C@]1(C)CSSC[C@](C)(NC(=O)[C@H](CC(C)C)NC(=O)CNC(=O)[C@H](CO)NC(C)=O)C(=O)N[C@@H](Cc2ccc(O)cc2)C(=O)N[C@@H]([C@@H](C)CC)C(=O)N[C@@H](CCCNC(=N)N)C(=O)N1)C(C)C)[C@@H](C)CC)C(=O)N[C@@H](CO)C(=O)NCC(=O)NCC(=O)N[C@@H](CO)C(=O)N[C@@H](CCCNC(=N)N)C(=O)N[C@@H](Cc1c[nH]c2ccccc12)C(=O)O [Disulfide bridge stapled analogue] (Ac-SGL[αMeC]YIR[αMeC]VIYISGGSRW-OH; disulfide 4-8; C-terminus assumed)
[1]
  Ki: 46.8 nM
[4]
  EC50: 145 nM

B1: Native INSL5 (human insulin-like peptide 5) (ligand)
chain 1: ZDLQTLCCTDGCSMTDLSALC
chain 2: KESVRLCGLEYIRTVIYICASSRW
[5]
  cAMP pEC50: 8.34
[6]
  pKi: 8.43
[7]
  pKi: 8.47

## SGREFIRAVIFTSR (14 residues) [H3B10-22R13/17EA (Formula XII, truncated form of H3B1-22R)]
[8]
  binding result: no binding
[9]
  pKi: 6.08

B2: Linear B-chain (INSL5 B chain analogue, Formula IV) (peptide)
peptide: SGLEYIRTVIYISGGSRW-OH
notes: Residues numbered 7-24 after the native INSL5 B chain; also called control
[5]
  cAMP pEC50: < 5
[6]
  binding result: no binding

B3: INSL5-A13: B7-24_G20/21 (two-chain G20/21 analogue) (ligand)
chain 1: CTDGASMKDLSALC
chain 2: CGLEYIRTVIYICGGSRW
notes: GlyGly at positions B20 and B21; also called Formula III
[5]
  cAMP pEC50: 8.93
[7]
  pKi: 8.64

B4: INSL5-A13: B7-24 (reduced two chain analogue) (ligand)
chain 1: CTDGASMKDLSALC
chain 2: CGLEYIRTVIYICASSRW
modifications: not fully specified; cysteine pairing not given here
notes: also called Formula II
[5]
  cAMP pEC50: 8.08
[7]
  pKi: 8.06

## Ac-SGL[αMeC]YIR[αMeC]VIYISGGSRW (disulfide 4-8, also called disulfide stapled analogue) [Disulfide bridge stapled analogue (INSL5 B-chain, Formula IX)]
[5]
  cAMP pEC50: 6.84
[6]
  pKi: 7.33

## SGLKYIRDVIYISGASRW (lactam 4-8) [Lactam Bridge stapled analogue (INSL5 B-chain, Formula VII)]
[7]
  pKi: 6.45

B5: INSL5-A13 (two-chain INSL5 analogue, RXFP4 agonist) (ligand)
chain 1: CTDGASMKDLSALC
chain 2: KESVRLCGLEYIRTVIYICASSRW
modifications: disulfide I:1-II:7, I:14-II:19
notes: Disulfide bonds: Cys 1 of A chain to Cys 7 of B chain; Cys 14 of A chain to Cys 19 of B chain; also called Analogue 13; two chain agonist
[5]
  cAMP pEC50: 8.1
[6]
  pKi: 7.46
[7]
  pKi: 8.11

B6: αF stapled analogue (INSL5 B-chain, Formula V) (peptide)
peptide: SGL[αMeF]YIR[αMeF]VIYISGGSRW
notes: 18-residue RXFP4 agonist; also called aF stapled analogue; πI5B
[5]
  cAMP pEC50: 7.06
[6]
  pKi: 6.8
[7]
  pKi: 7.51

B7: πI5B7-24-GG-S19E (peptide)
peptide: SGL[αMeF]YIR[αMeF]VIYIEGGSRW
notes: 18-residue RXFP4 agonist with two αF residues and glutamic acid at residue 19 (numbering of native INSL5 B chain)
[5]
  cAMP pEC50: 7.39
[7]
  pKi: 8.13

## Ac-SGL[S5]YIR[S5]VIYISGASRW (staple 4-8) [Hydrocarbon stapled analogue (INSL5 B-chain, Formula VI)]
[5]
  cAMP pEC50: 6.18
[7]
  pKi: 6.81

## SGRFFIRFVIFTSR (14 residues) [H3B10-22R13/17FF (Formula XIII, non-alpha-methylated analogue of Formula X)]
[8]
  binding result: no binding
[9]
  pKi: 6.67
